System: flag-tagged SUMO1
Sequence (chain, as listed by the source): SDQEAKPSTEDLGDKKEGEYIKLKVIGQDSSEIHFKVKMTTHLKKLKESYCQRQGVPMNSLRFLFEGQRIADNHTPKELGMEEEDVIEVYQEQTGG

## SERCA2a wild type (WT), expressed from a plasmid in HEK293 cells
  Vmax of Ca2+-dependent ATPase activity of WT SERCA2a with co-expression of SUMO1: 98.58 ± 1.83 nmol/min/mg

Source: patent US20170014494
